Assay results from patent publication US12710427B2, “Anti-human neurotensin receptor 1 antibody and use thereof” (National Health Research Institutes, priority 2020, dated 2026).
“Also recorded” adds a separate entry of the source.

Experiments:
[1] = system: A549; assay: In vitro cell cytotoxicity assay (CellTiter-Glo); assay type: cell-based
Procedure: (§1) The number of living cells were determined using the CellTiter-Glo® Luminescent Cell Viability Assay (Promega G7571). Cells were plated in 96-well opaque Costar plates (Cat number 136101). In brief, 500-2500 cells in 90 μL media were added to each well in quadruplicate and allowed to adhere for 16 hours. Anti-NTSR1 (dose range: 0-500 nM), anti-NTSR1-MMAE (dose range: 0-500 nM) or Paclitaxel (dose range: 0-100 nM) were added in […] 72-120 hours, medium was removed, and 200 μL of CellTiter-Glo® viability reagent contain culture medium (1:1) was added to each well and placed on an orbital shaker in the dark for 2 minutes. The plate was allowed to sit at RT for 10 minutes before being read on a GloMax® Explorer Multimode Microplate Reader (GM3500).

[2] = system: PC-3; assay: In vitro cell cytotoxicity assay (CellTiter-Glo); assay type: cell-based
Procedure: as §1

[3] = Isoelectric point (pI); assay type: physicochemical
[4] = Pharmacokinetics in mice, serum antibody by ELISA; assay type: in vivo
Procedure: The pharmacokinetics of h7C3-3 and h7C3-4 were evaluated in B6 mice. B6 mice (n=6) were administered 10 mg/kg of test material (based on the antibody component) by tail vein injection. Blood samples were collected from each mouse via the saphenous vein at hour 1, 2, and 6, and at day 1, 2, 3, 4, 7, 9, 11, 14, 16, 18, 21, 23, 25, 35 and 42 post-injection, and serum samples were collected. Plasma concentrations of h7C3-3 and h7C3-4 were measured by IgG (Total) Human ELISA Kit (Invitrogen, BMS2091).

[5] = system: H1299 lung tumor xenograft; assay: H1299 lung tumor xenograft model; assay type: in vivo, nude mice; conditions: for body weight: 10 mg/kg, H1299 xenograft mice
Excerpt: (§2) Immuodeficient male NU/NU nude mice (for H1299 and PC-3 xenograft study) and male Fox Chase SCID® mice (for HA22T-Luc xenograft study) of 7-week-old purchased from BioLASCO were housed in sterilized cages equipped with an air filter and sterile bedding materials at the Laboratory Animal Center of the National Health Research Institutes (NHRI), which is an AAALAC International accredited facility. All mice were fed with sterilized water and chow ad libitum under 12-hour light/12-hour dark cycle throughout the study. On the day of tumor cell inoculation, the number of viable cells was counted by using a hemocytometer with trypan blue staining under a light microscope. Cells were suspended in phenol red-free medium [RPMI1640 (H1299) or DMEM (HA22T-Luc)] or PBS (PC-3) and Matrigel™ (356237, Matrigel® Matrix, Corning, MA, United States) in 1:1 ratio. H1299 (1×10^6 cells), HA22T-Luc (5×10^6 cells) and PC-3 (1×10^6 cells) were implanted subcutaneously into the left flank of either nude or SCID mice using a 1 mL syringe (needle 24G×1 inch). Tumor dimensions were measured with a digital caliper, and the tumor volume in mm^3 was calculated by the formula: Volume=(length×width^∧2)/2. Tumor-bearing mice were grouped (n=5-8 per group) and administered when the average tumor volume was approximately at 200 mm^3. In the 3 individual xenograft studies, human IgG (HU-GF-ED, Lot#120916DG, Molecular Innovations, MI, USA), h7C3-4, h7C3-3-MMAE and h7C3-4-MMAE were diluted in 1× Dulbecco's Phosphate Buffered Saline (02-023-5A, Biological Industries, CT, USA) freshly before dosing at concentration of 2.5 mg/ml. Cisplatin (KEMOPLAT, 1 mg/mL, 87200009AA, Fresenius Kabi, Bad Homburg, Germany) was purchased. In the H1299 xenograft study, tumor-bearing mice were divided into 5 groups (6 mice per group): Human IgG −10 mg/Kg group (negative control), Cisplatin—7 mg/Kg group (positive control), h7C3-3-MMAE —10 mg/Kg group, h7C3-4 −10 mg/Kg group and h7C3-4-MMAE −10 mg/Kg group. The mice were intravenously injected with 4 mL/Kg of dose volume by tail vein twice per week for 3 weeks, except for the Cisplatin group, which was once per week for 3 weeks. In the HA22T-Luc xenograft study, tumor-bearing mice were divided into 3 groups (8 mice per group): Human IgG −10 mg/Kg group (negative control), h7C3-3-MMAE −10 mg/Kg group and h7C3-4-MMAE (ADC) −10 mg/Kg group. The mice were intravenously injected with 4 mL/Kg of dose volume by tail vein twice per week for 2 weeks. In the PC-3 xenograft study, tumor-bearing mice were divided into 2 groups: no treatment group (5 mice) and h7C3-4-MMAE (ADC) −10 mg/Kg (8 mice). The mice in h7C3-4-MMAE −10 mg/Kg group were intravenously injected with 4 mL/Kg of dose volume by tail vein twice per week for 3 weeks. Each treatment was based on the body weight. Body weight and tumor size were measured twice weekly.
Nude mice were subcutaneously inoculated with NTSR1-expressing cells, H1299 (1×10^6 cells per mouse). When the tumors reached a volume of 200 mm^3, the tumor-bearing mice were grouped (n=6) and administered intravenously with human IgG (negative control), h7C3-3-MMAE, h7C3-4 and h7C3-4-MMAE, respectively, at 10 mg/Kg twice weekly for six doses. The Cisplatin (positive control) was administered intravenously at 7 mg/Kg weekly for three doses.

[6] = system: HA22T-Luc liver tumor xenografts; assay: HA22T-Luc liver tumor xenograft model; assay type: in vivo, SCID mice; conditions: for tumor volume on day 15 / tumor volume until 36 days: 10 mg/Kg i.v. twice weekly for four doses; for body weight: 10 mg/kg, HA22T-Luc xenograft mice
Excerpt: as §2
To compare the anti-tumor efficacies of h7C3-3-MMAE and h7C3-4 MMAE, an experiment was performed with 5×10^6 HA22T-luc liver cancer cells inoculated subcutaneously to SCID mice. Tumor-bearing mice were divided into 3 groups (n=8). When the tumors reached a volume of 200 mm^3, 10 mg/Kg of human IgG, h7C3-3-MMAE and h7C3-4 MMAE were administered intravenously, respectively, twice weekly for four doses.

[7] = system: PC3 prostate tumor xenograft; assay: PC3 prostate tumor xenograft model; assay type: in vivo, nude mice
Excerpt: as §2, with “The mice were intravenously injected with 4 mL/Kg of dose volume by tail vein twice per week for 3 weeks, except for the Cisplatin group, which was once per week for 3 weeks. In the HA22T-Luc xenograft study, tumor-bearing mice were divided into 3 groups (8 mice per group): Human IgG −10 mg/Kg group (negative control), h7C3-3-MMAE −10 mg/Kg group and h7C3-4-MMAE (ADC) −10 mg/Kg group. The mice were intravenously injected with 4 mL/Kg of dose volume by tail vein twice per week for 2 weeks. In the PC-3 xenograft study, tumor-bearing mice were divided into 2 groups: no treatment group (5 mice) and h7C3-4-MMAE (ADC) −10 mg/Kg (8 mice). The mice in h7C3-4-MMAE −10 mg/Kg group were intravenously injected with 4 mL/Kg of dose volume by tail vein twice per week for 3 weeks. Each treatment was based on the body weight.” left out, “weekly. […]” for “weekly.”

[8] = biological target: T1, NTSR1 on A549 cells (Homo sapiens, UniProt P30989); assay: Flow cytometry (FACS) binding of anti-NTSR1 antibodies on A549 cells; conditions: A549 cells, one hour incubation at 4° C.
T1 construct: endogenous in cells; host or cells: A549 (NSCLC)
Procedure: A total of 1×10^6 cells were reacted with an anti-NTSR1 antibody in 100 μL of FACS buffer (PBS containing 0.5% BSA) for 60 minutes at 4° C. and washed two times to remove excess antibody. Secondary FITC (BD Pharmingen™) conjugated mouse anti-human IgG antibodies were incubated for an additional 60 minutes on ice. Cells were washed again and followed by an additional incubation with 1 ml PBS containing 0.5 mg/mL propidium iodide at 4° C. for 10 minutes. Data were collected on 10,000 living cells by FACS (Bio-Red S3e cell sorter). Fluorescence intensity from channel FL-1 was calculated with Flow Jo flow […] cytometry analysis software.

[9] = system: H1299; assay: In vitro cell cytotoxicity assay (CellTiter-Glo); assay type: cell-based
Procedure: as §1

[10] = system: HA22T-Luc; assay: In vitro cell cytotoxicity assay (CellTiter-Glo); assay type: cell-based
Procedure: as §1

[11] = system: HA22T; assay: In vitro cell cytotoxicity assay (CellTiter-Glo); assay type: cell-based
Procedure: as §1

[12] = system: Mahlavu; assay: In vitro cell cytotoxicity assay (CellTiter-Glo); assay type: cell-based
Procedure: as §1

[13] = system: NTSR1-expressing A549 cancer cells; assay: Internalization of h7C3-3 or h7C3-3-ADC in A549 cells (flow cytometry); assay type: cell-based; conditions: A549, 1 μg/ml, 37° C. for 90 minutes
Procedure: A total of 1×10^6 cells were reacted with the indicated antibody or ADC in 100 μL of FACS buffer for 60 minutes at 4° C. and washed to remove excess antibody or ADC. Cells were then transferred to 4° C. or 37° C. for 90 minutes. To determine the relative number of h7C3-3 or h7C3-3-ADC on the cell surface, cells were stained with saturating amounts of FITC (BD Pharmingen™) conjugated mouse anti-human IgG antibodies and incubated for additional 60 minutes on ice. Cells were washed again and followed by an additional incubation with 1 ml PBS containing 0.5 mg/mL propidium iodide at 4° C. for 10 minutes. Data were collected on 10,000 living cells by FACS (Bio-Red S3e cell sorter). Fluorescence intensity from channel FL-1 was calculated with Flow Jo flow cytometry analysis software. Preparation of anti-NTSR1 antibody-drug conjugates (ADCs)

[14] = 10 mg/kg i.v. twice weekly for six doses

T1 sequence (P30989 whole entry): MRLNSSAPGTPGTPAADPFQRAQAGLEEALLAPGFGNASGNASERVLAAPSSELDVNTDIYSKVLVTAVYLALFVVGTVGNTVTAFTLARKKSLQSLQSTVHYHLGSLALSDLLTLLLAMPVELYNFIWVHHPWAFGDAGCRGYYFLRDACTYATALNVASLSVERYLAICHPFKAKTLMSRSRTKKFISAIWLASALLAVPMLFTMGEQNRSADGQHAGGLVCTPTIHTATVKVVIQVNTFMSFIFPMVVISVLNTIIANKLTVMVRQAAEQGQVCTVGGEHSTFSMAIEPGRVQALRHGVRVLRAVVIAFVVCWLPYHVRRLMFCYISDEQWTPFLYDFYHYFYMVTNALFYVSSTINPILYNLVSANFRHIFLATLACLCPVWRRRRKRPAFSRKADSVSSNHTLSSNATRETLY

| Molecule | IC50 [1] [nM] | IC50 [2] [nM] | isoelectric points (pI) compared to h7C3-3 [3] | pharmacokinetics (overall) ([4]; 10 mg/kg) | clearance compared with h7C3-3 ([4]; single intravenous administration 10 mg/kg) | tumor growth (tumor volume) until/on day 35 [5, 14] | tumor growth (tumor volume) on day 18 ([5]; 10 mg/kg i.v. twice weekly for six doses, vs human IgG 10 mg/kg and Cisplatin 7 mg/kg) | body weight [5] | tumor volume on day 15 [6] | tumor volume until 36 days [6] | body weight [6] | antitumor efficacy [7, 14] | tumor volume until day 60 [7, 14] | body weight / general physiological conditions ([7]; 10 mg/kg, PC3 xenograft mice) | binding on cell surface [8] | IC50 [9] [nM] | IC50 [10] [nM] | IC50 [11] [nM] | IC50 [12] [nM] | internalization efficiency [13] |
| --- | --- | --- | --- | --- | --- | --- | --- | --- | --- | --- | --- | --- | --- | --- | --- | --- | --- | --- | --- | --- |
| h7C3-4: h7C3-3 variant with S9T and D82E in VH and K79T in VL; VH SEQ ID NO: 13, VL SEQ ID NO: 14 (antibody, V domains shown, VH SEQUENCE; VL SEQUENCE) VH: QVQLQQPGTVLVRPGASVKLSCKASGYAFTSSWIHWAKQRPGQGLEWIGQIRPNSGNTYYNEKFKVKATLTVDTSSSTAYVELSSLTSEDSAVYYCARYHYGFDYWGQGTLVTVSS VL: DVLMTQTPLSLPVSLGDQASISCRSSQSIVHSNGNTYLEWYLQKPGQSPKLLIYKVSNRFSGVPDRFSGSGSGTDFTLTISRVEAEDLGVYYCFQGAHLPWTFGGGTKLEIKR | > 500 | > 500 | lower | better pharmacokinetics | significantly improved clearance | – | – | – | – | – | – | – | – | – | – | – | – | – | – | – |
| h7C3-4-MMAE: h7C3-4 conjugated with MMAE via cleavable valine-citrulline linker, average 3.8-4 MMAE per antibody (conjugate) VH: QVQLQQPGTVLVRPGASVKLSCKASGYAFTSSWIHWAKQRPGQGLEWIGQIRPNSGNTYYNEKFKVKATLTVDTSSSTAYVELSSLTSEDSAVYYCARYHYGFDYWGQGTLVTVSS VL: DVLMTQTPLSLPVSLGDQASISCRSSQSIVHSNGNTYLEWYLQKPGQSPKLLIYKVSNRFSGVPDRFSGSGSGTDFTLTISRVEAEDLGVYYCFQGAHLPWTFGGGTKLEIKR | 33.5 ± 3.32 | 55.4 ± 5.17 | – | – | – | Prolonged regression of tumor | inhibited the tumor growth more potently | did not show body weight loss | tumor regression | prolonged regression of tumor | did not show body weight loss | highly efficacious | prolonged regression of tumor | did not induce any abnormalities; also recorded: did not cause body weight loss | – | – | – | – | – | – |
| h7C3-3-MMAE: h7C3-3 conjugated with MMAE via cleavable valine-citrulline linker, average 3.8-4 MMAE per antibody (conjugate, non-natural residues, h7C3-3 conjugated with MMAE via cleavable valine-citrulline linker, average 3.8-4 MMAE per antibody) VH: QVQLQQPGSVLVRPGASVKLSCKASGYAFTSSWIHWAKQRPGQGLEWIGQIRPNSGNTYYNEKFKVKATLTVDTSSSTAYVDLSSLTSEDSAVYYCARYHYGFDYWGQGTLVTVSS VL: DVLMTQTPLSLPVSLGDQASISCRSSQSIVHSNGNTYLEWYLQKPGQSPKLLIYKVSNRFSGVPDRFSGSGSGTDFTLKISRVEAEDLGVYYCFQGAHLPWTFGGGTKLEIKR | 40.9 ± 1.63 | 21.9 ± 2.04 | – | – | – | partial inhibition of the tumor growth | – | did not show body weight loss | tumor regression | prolonged regression of tumor | did not show body weight loss | – | – | – | have binding efficiency on cell surface | 95.6 ± 2.02 | 39.4 ± 2.87 | 36.9 ± 3.04 | 236 ± 6.9 | internalized efficiently |
